Source: publication PMC9120130

Target: Human ACE2-hIgG1Fc (human) (UniProt Q9BYF1)
Test: SPR

Chain of Human ACE2-hIgG1Fc (human) (Q9BYF1 18-740): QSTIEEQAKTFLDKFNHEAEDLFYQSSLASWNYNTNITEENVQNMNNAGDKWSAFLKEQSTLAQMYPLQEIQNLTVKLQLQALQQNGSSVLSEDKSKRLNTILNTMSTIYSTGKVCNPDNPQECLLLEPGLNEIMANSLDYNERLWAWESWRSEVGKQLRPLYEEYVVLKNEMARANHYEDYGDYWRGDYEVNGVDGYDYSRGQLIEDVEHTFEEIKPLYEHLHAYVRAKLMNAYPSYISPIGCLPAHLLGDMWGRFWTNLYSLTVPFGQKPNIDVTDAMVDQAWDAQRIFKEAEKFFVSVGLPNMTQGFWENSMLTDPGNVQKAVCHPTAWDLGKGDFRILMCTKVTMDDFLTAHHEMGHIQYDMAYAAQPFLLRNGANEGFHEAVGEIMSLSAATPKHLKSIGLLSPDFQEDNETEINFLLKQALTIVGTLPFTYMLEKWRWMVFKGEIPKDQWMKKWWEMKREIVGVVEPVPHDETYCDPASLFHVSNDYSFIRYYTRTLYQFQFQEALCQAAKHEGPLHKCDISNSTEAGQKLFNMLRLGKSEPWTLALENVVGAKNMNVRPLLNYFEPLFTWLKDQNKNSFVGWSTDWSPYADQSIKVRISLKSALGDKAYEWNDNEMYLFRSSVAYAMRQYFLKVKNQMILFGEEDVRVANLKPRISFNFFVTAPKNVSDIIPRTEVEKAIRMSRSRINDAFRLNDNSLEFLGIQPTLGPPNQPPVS

Wuhan RBD
Kd: 7.3 nM
koff: 0.0051 s⁻¹
